Data on 3 molecules can be found in US20260022175A1 (Chugai, published 2026).

In assay [1] the target is T1, human CTLA4 (human).
T1 construct: also called hCTLA4; hCTLA4-His-BAP
The experiment in a line: SPR Biacore T200, 37C, antibody captured, ATP 1 uM. (SPR reads the build-up and loss of mass on a sensor chip optically.)
Protocol: (§1) Biacore T200 was used to measure the binding of the generated antibodies to human CTLA4. 20 mM ACES (pH 7.4), 150 mM NaCl, 2 mM MgCl₂, 0.05% Tween 20 with ATP added to the desired concentration was used as the running buffer, and the assay was performed at 37° C. First, Protein G (CALBIOCHEM) was immobilized onto a Series S Sensor Chip CM3 (GE Healthcare), and the antibodies were captured by interacting an antibody solution prepared in an ATP-free running buffer with the chip. Next, by interacting with a human CTLA4 solution prepared in a running buffer containing ATP to the desired concentration, or a human CTLA4 solution prepared in a running buffer containing no ATP, the binding ability of the antibody to human CTLA4 in the presence or absence of ATP was evaluated. Chips were regenerated with 25 mM NaOH and 10 mM Glycine-HCl (pH 1.5), and assay was performed by repeatedly capturing antibodies. The dissociation constant of each antibody for CTLA4 was calculated using Biacore T200 Evaluation Software 2.0. Specifically, the binding rate constant ka (L/mol/s) and the dissociation rate constant kd (1/s) were calculated by global fitting of the sensorgrams obtained by the measurement, using a 1:1 Langmuir binding model. The dissociation constant KD (mol/L) was calculated from those values. Alternatively, the dissociation constant KD (mol/L) was calculated by the steady state model. In addition, the binding amount of CTLA4 per unit amount of antibody was calculated by correcting the amount of CTLA4 bound as calculated from the sensorgram obtained by the assay with the amount of antibody captured onto the chip surface.

In assay [2] the target is T1, human CTLA4. Kind of assay: SPR Biacore T200, 37C, antibody captured, ATP 1 uM. This is another data set of the same source.
Protocol: as §1
(§2) Next, the binding ability of some variants to mouse CTLA4 and cynomolgus monkey CTLA4 was evaluated.
Assay [3] has as its target T2, cynomolgus monkey CTLA4 (CyCTLA4-His-BAP) (cynomolgus monkey). The experiment in a line: SPR Biacore T200, 37C, antibody captured, ATP 1 uM.
Protocol: as §1, §2
The target in assay [4] is T1, human CTLA4. Kind of assay: SPR Biacore T200, 37C, antibody captured, ATP 10 uM.
Protocol: as §1
In assay [5] the target is T1, human CTLA4. The experiment in a line: SPR Biacore T200, 37C, antibody captured, ADP 10 uM.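 Further: antibodies held on a Protein G CM3 chip, human CTLA4 as analyte in ACES pH 7.4 buffer, rates from a global 1:1 Langmuir fit, Kd from rates or steady state.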
Protocol: as §1
(§3) The binding ability of the generated variants to human CTLA4 in the presence of ADP or AMP was evaluated by Biacore T200 and compared with the binding ability in the presence of ATP.
The target in assay [6] is T1, human CTLA4. The experiment in a line: SPR Biacore T200, 37C, antibody captured, AMP 10 uM.
The target of assay [7] is T1, human CTLA4. The experiment in a line: SPR Biacore T200, 37C, antibody captured, ATP 10 uM. The source holds these as a separate data set.
Protocol: as §1, §3
For assay [8], the target named is T1, human CTLA4. The assay is described as above. This is another data set of the same source.
Protocol: as §1, §2
In assay [9] the target is T2, cynomolgus monkey CTLA4 …. The description is as above.
Protocol: as §1, §2
The target of assay [10] is T1, human CTLA4. Kind of assay: SPR Biacore T200, 37C, antibody captured, ATP 100 uM.
Protocol: as §1, §2
In assay [11] the target is T2, cynomolgus monkey CTLA4 …. Described as above.
Protocol: as §1, §2
For assay [12], the target named is T1, human CTLA4. The experiment in a line: SPR Biacore T200, 37C, antibody captured, no ATP, steady state model.
Protocol: Biacore T200 was used to measure the binding of the generated antibodies to human CTLA4. 20 mM ACES (pH 7.4), 150 mM NaCl, 2 mM MgCl₂, 0.05% Tween 20 with ATP added to the desired concentration was used as the running buffer, and the assay was performed at 37° C. First, Protein G (CALBIOCHEM) was immobilized onto a Series S Sensor Chip CM3 (GE Healthcare), and the antibodies were captured by interacting an antibody solution prepared in an ATP-free running buffer with the chip. Next, by interacting with a human CTLA4 solution prepared in a running buffer containing ATP to the desired concentration, or a human CTLA4 solution prepared in a running buffer containing no ATP, the binding ability of the antibody to human CTLA4 in the presence or absence of ATP was evaluated. Chips were regenerated with 25 mM NaOH and 10 mM Glycine-HCl (pH 1.5), and assay was performed by repeatedly capturing antibodies. The dissociation constant of each antibody for CTLA4 was calculated using Biacore T200 Evaluation Software 2.0. Specifically, the binding rate constant ka (L/mol/s) and the dissociation rate constant kd (1/s) were calculated by global fitting of the sensorgrams obtained by the measurement, using a 1:1 Langmuir binding model. The dissociation constant KD (mol/L) was calculated from those values. Alternatively, the dissociation constant KD (mol/L) was calculated by the steady state model.
Assay [13] addresses hFcγRIIIaV on hFcγRIIIaV-expressing Jurkat cells (human, UniProt P08637 17-254). The experiment in a line: cell-based or functional assay.
Assay [14] has as its target T3, human FcγRIa extracellular domain (human, UniProt P12314 16-292).
T3 construct: extracellular domain; also called hFcγR Ia; hFcγRIa
The experiment in a line: SPR Biacore 8K+; KD of G1d divided by KD of this antibody.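 Further: antibodies captured on an anti-Fab-kappa streptavidin chip, soluble FcγR ectodomains flowed over, KD by steady-state fit for FcγRIIb and Langmuir kinetic model for the other receptors.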
Protocol: (§4) The interaction between the produced antibodies and human FcγRs was analyzed using Biacore 8K+ by the method below. For the running buffer, 50 mM Na-Phosphate, 150 mM NaCl, and 0.05% Tween20 (pH 7.4) was used, and measurement was performed at 25° C. The sensor chip used was a Series S SA chip (GE Healthcare) onto which CaptureSelect Human Fab-kappa Kinetics Biotin Conjugate (Thermo Fisher Scientific) was immobilized. An antibody of interest was captured onto this chip, and each FcγR diluted with the running buffer was allowed to interact with it. The chip was regenerated using 10 mM Glycine-HCl (pH 1.5), and repeatedly used to capture antibodies and perform measurement. The dissociation constants KD (mol/L) of each antibody for FcγRs were calculated using Biacore Insight Evaluation Software, with a steady state affinity model for the dissociation constant for FcγRIIb and a 1:1 Langmuir binding model for the dissociation constants for the other FcγRs (Table 48).

For assay [15], the target named is T4, human FcγRIIa H extracellular domain (human, UniProt P12318 34-217).
T4 construct: extracellular domain; also called hFcγR IIa H
T4 sequence (looked up): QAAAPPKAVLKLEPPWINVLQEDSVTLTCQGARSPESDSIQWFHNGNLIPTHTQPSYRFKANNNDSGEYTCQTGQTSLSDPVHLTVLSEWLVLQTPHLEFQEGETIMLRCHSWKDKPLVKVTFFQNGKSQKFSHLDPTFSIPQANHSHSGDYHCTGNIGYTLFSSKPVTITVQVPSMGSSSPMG
The description is as above.
Protocol: as §4

Assay [16] concerns the target T5, human FcγRIIa R extracellular domain (human, UniProt P12318 34-217).
T5 construct: extracellular domain; also called hFcγR IIa R
T5 sequence (looked up): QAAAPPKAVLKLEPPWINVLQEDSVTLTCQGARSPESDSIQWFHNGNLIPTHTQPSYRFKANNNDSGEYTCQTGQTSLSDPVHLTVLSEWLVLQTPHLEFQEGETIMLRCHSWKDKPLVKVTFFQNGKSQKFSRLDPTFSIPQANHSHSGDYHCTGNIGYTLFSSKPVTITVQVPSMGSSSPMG
Described as above.
Protocol: as §4

Assay [17] deals with T6, human FcγRIIb extracellular domain (human, UniProt P31994 43-217).
T6 construct: extracellular domain; also called hFcγR IIb
T6 sequence (looked up): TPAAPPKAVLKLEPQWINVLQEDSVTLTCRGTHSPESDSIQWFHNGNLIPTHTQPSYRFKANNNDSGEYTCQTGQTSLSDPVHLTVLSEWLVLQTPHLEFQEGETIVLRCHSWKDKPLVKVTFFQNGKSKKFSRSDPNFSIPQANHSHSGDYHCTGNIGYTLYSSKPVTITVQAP
Described as above.
Protocol: as §4

Assay [18] concerns the target T7, human FcγRIIIa F extracellular domain (human, UniProt P08637 17-208).
T7 construct: extracellular domain; also called hFcγR IIIa F
Described as above.
Protocol: as §4

The target in assay [19] is T8, human FcγRIIIa V extracellular domain (human, UniProt P08637 17-208).
T8 construct: extracellular domain; also called hFcγR IIIa V
The assay is described as above.
Protocol: as §4

Assay [20] deals with T4, human FcγRIIa H extracellular domain. The experiment in a line: SPR Biacore 8K+; KD for FcγRIIb divided by KD for this FcγR.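 Further: antibodies captured on an anti-human Fab kappa SA chip with soluble human FcγR ectodomains flowed over, FcγRIIb KD from steady-state fit, other FcγR KD from Langmuir model.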
Protocol: as §4
Assay [21] deals with T5, human FcγRIIa R extracellular domain. The assay is described as above.
Protocol: as §4
Assay [22] has as its target T7, human FcγRIIIa F extracellular domain. The assay is described as above.
Protocol: as §4
The target of assay [23] is T8, human FcγRIIIa V extracellular domain. The description is as above.
Protocol: as §4
Assay [24] addresses T3, human FcγRIa extracellular domain. Kind of assay: SPR Biacore 8K+, antibody captured, FcγR as analyte, 1:1 Langmuir model.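 Further: antibodies captured on a streptavidin chip through a biotinylated anti-human Fab kappa reagent, with FcγR extracellular domains injected in pH 7.4 phosphate buffer at 25 °C.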
Assay [25] addresses T4, human FcγRIIa H extracellular domain. The assay is described as above.
Assay [26] addresses T5, human FcγRIIa R extracellular domain. Described as above.
Assay [27] deals with T7, human FcγRIIIa F extracellular domain. Described as above.
Assay [28] addresses T8, human FcγRIIIa V extracellular domain. The description is as above.
The target of assay [29] is T6, human FcγRIIb extracellular domain. The experiment in a line: SPR Biacore 8K+, antibody captured, FcγR as analyte, steady state affinity model.
Assay [30] has as its target T9, human C1q protein (Calbiochem) (human, UniProt P02745 23-245; P02746 28-253; P02747 29-245).
T9 construct: bought; also called hC1q
The experiment in a line: ELISA: antibody coated on the plate at the varied concentration, hC1q 3 µg/mL added, detected with HRP-conjugated anti-hC1q antibody, O.D (450-690nm).
Protocol: The antigen used was a human C1q protein (hC1q).
First, a 96-well maxisorp plate (Thermo fisher) was coated at 4° C. overnight with 50 μL of solutions containing each antibody prepared at 30, 10, 3, 1, 0.3, 0.1, and 0.03 μg/mL in PBS. Each well of the plate was washed with Wash buffer to remove the antibody not bound to the plate, and then the wells were blocked with 200 μL of Blocking/dilution Buffer at room temperature for 2 hours or longer. After the Blocking/dilution Buffer was removed from each well, hC1q (Calbiochem) prepared such that the final concentration was 3 μg/mL in Blocking/dilution Buffer was added at 50 μL per well. The plate was then allowed to stand at room temperature for 1 hour to allow hC1q to bind to the antibody within each well. After washing with Wash Buffer, 50 μL of an HRP-conjugated anti-hC1q antibody (AbDSerotec) diluted with Blocking/dilution Buffer was added to each well, and the plate was incubated while standing for 1 hour. After washing with Wash Buffer, TMB single solution (Invitrogen) was added. The color development reaction of the solution in each well was stopped by addition of Stop Buffer, and then the developed color was measured by absorbance at 450 nm and 690 nm.

T1 sequence (chain, as listed by the source limits assumed): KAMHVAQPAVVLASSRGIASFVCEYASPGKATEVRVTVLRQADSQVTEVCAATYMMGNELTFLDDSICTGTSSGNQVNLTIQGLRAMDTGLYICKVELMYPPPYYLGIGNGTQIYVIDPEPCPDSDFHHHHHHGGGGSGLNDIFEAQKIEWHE
T2 sequence (chain, as listed by the source limits assumed): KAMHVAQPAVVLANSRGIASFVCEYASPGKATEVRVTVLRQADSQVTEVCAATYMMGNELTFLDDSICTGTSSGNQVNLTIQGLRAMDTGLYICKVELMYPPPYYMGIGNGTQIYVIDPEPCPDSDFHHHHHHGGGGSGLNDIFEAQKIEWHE
T7 sequence (P08637 17-208): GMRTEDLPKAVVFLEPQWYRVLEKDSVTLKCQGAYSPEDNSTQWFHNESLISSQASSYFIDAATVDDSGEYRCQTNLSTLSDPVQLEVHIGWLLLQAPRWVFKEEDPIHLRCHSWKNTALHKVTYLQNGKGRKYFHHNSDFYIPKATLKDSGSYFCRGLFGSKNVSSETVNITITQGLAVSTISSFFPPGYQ
T8 sequence (P08637 17-208 F176V limits assumed): as the sequence (P08637 17-208) above, with F160V counted along it
T9 sequence (P02745 23-245 limits assumed, chain 1 of 3): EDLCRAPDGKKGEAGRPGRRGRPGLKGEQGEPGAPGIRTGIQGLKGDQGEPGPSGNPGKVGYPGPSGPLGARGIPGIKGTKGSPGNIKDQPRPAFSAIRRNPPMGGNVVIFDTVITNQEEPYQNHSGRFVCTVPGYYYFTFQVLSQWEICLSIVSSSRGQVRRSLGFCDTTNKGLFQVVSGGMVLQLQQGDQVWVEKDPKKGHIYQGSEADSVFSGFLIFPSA
T9 sequence (P02746 28-253 limits assumed, chain 2 of 3): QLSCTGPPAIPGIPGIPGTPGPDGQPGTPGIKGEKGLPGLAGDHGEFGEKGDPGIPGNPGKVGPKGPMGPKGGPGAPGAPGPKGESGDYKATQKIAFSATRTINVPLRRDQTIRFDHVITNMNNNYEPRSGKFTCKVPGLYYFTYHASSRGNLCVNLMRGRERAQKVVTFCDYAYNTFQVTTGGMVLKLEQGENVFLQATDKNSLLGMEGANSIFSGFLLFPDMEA
T9 sequence (P02747 29-245 limits assumed, chain 3 of 3): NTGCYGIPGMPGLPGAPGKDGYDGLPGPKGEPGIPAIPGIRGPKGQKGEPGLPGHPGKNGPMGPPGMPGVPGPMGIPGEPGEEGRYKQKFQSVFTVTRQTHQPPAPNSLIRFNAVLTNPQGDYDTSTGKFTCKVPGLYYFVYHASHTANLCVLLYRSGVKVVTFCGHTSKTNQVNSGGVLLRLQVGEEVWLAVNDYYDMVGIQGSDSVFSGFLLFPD
T3 sequence (P12314 16-292): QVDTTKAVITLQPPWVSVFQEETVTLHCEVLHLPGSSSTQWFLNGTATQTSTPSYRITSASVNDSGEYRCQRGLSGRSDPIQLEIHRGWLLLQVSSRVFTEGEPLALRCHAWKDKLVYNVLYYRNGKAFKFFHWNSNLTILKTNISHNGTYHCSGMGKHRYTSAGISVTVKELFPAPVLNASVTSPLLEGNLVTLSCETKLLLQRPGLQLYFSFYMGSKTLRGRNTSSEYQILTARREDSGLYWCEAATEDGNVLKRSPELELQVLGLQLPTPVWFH
hFcγRIIIaV on hFcγRIIIaV-expressing Jurkat cells, sequence (P08637 17-254, form in doubt): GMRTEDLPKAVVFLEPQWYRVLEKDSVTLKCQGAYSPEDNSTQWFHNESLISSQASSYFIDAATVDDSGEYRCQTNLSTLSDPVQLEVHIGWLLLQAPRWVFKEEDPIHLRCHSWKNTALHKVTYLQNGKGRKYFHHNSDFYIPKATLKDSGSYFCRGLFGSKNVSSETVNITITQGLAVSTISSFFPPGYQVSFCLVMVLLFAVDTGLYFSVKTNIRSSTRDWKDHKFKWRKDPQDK

B1: 04H1656-G1m/04L1612-lam1 (antibody, human IgG1, lambda)
heavy: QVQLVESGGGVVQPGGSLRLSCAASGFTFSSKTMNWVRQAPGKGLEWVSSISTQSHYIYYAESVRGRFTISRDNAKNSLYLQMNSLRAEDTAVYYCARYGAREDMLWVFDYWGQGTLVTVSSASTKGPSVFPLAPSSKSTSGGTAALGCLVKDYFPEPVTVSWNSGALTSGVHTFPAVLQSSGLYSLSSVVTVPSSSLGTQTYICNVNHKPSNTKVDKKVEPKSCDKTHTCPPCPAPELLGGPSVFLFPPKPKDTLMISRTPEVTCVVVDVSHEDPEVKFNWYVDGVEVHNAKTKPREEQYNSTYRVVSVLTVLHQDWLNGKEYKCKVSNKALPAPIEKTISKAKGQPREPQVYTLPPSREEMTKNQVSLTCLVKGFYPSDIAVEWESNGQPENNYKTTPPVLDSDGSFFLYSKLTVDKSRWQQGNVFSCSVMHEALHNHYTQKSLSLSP
light: QSALTQPPSASGSPGQSVTISCEGPSTGVGDYTYVHWYQQHPGKAPKLMIYFTSKKPSGVPDRFSGSKSGNTASLTVSGLQAEDEADYYCQTYAAPLGPMFGGGTKLTVLGQPKAAPSVTLFPPSSEELQANKATLVCLISDFYPGAVTVAWKADSSPVKAGVETTTPSKQSNNKYAASSYLSLTPEQWKSHRSYSCQVTHEGSTVEKTVAPTECS
Turning to B1, the Kd worked out at 160 nM in the assay with human CTLA4 [1]; 95 nM with human CTLA4 [2]; 160 nM in [3]; 32 nM with human CTLA4 [4]; 42 nM in the assay with human CTLA4 [5]; 130 nM with human CTLA4 [6]. In addition, the Kd with human CTLA4 [7] amounted to 26 nM; with human CTLA4 [8], 25 nM; in assay [9], 41 nM; with human CTLA4 [10] it was 7.8 nM; in assay [11], 16 nM; in the assay with human CTLA4 [12], 7600 nM. Further, the dissociation rate constant (koff) with human CTLA4 [5] was determined as 0.0064 s⁻¹; with human CTLA4 [6], 0.02 s⁻¹; in the assay with human CTLA4 [7], 0.0029 s⁻¹. Moreover, the figures for the kon with human CTLA4 [5], with human CTLA4 [6] and with human CTLA4 [7] were 150000 M⁻¹ s⁻¹, 150000 M⁻¹ s⁻¹ and 110000 M⁻¹ s⁻¹, respectively.

B2: H240-G1d/L73-k0 (antibody, human IgG1, kappa)
heavy: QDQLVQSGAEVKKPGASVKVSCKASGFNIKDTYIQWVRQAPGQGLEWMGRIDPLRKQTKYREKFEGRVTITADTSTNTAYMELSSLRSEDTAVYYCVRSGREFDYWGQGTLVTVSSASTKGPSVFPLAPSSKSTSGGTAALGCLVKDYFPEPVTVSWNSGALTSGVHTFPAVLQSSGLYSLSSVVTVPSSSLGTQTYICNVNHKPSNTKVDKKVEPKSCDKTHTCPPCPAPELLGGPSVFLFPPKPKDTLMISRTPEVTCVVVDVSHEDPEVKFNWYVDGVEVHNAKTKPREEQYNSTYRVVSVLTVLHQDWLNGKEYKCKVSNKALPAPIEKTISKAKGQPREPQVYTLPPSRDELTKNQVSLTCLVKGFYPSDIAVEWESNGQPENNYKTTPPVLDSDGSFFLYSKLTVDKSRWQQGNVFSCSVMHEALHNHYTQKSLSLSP
light: DIQMTQSPSSLSASVGDRVTITCRASQDIHKYIAWYQQKPGQAPRLLIQYTSTLQPGVPSRFSGSGSGTDYTFTISSLQPEDIATYYCLQYEQLRTFGGGTKVEIKRTVAAPSVFIFPPSDEQLKSGTASVVCLLNNFYPREAKVQWKVDNALQSGNSQESVTEQDSKDSTYSLSSTLTLSKADYEKHKVYACEVTHQGLSSPVTKSFNRGEC
notes: Anti-human Epiregulin antibody with the human IgG1 constant region G1d (C-terminal Gly and Lys deleted); also called EGL-G1d
On to B2, for which, in assay [13], the “EC50 value (hFcγRIIIaV ADCC Reporter Bioassay, Hepa1-6/hEREG target cells)” value worked out at 0.0463 mg/L. In addition, the “Relative value to KD between G1d and hFcgRs” value in assay [14], in [15], in assay [16], in assay [17], in [18] and in assay [19] was 1 throughout. In addition, the “A/I ratio (KD for FcγRIIb divided by KD for each FcγR)” value in [20] worked out at 8.9; in assay [21], 6.1; in assay [22], 3.4; in [23], 28.1. In addition, the equilibrium dissociation constant (Kd) in assay [24] was determined as 0.0901 nM; in assay [25], 1120 nM; in assay [26], 1660 nM; in [27] it was 2960 nM; in assay [28], 358 nM; in assay [29], 10100 nM. Moreover, the binding result in [30] is “binds”.

B3: EGL-G4d (antibody, human IgG4 S228P, kappa)
heavy: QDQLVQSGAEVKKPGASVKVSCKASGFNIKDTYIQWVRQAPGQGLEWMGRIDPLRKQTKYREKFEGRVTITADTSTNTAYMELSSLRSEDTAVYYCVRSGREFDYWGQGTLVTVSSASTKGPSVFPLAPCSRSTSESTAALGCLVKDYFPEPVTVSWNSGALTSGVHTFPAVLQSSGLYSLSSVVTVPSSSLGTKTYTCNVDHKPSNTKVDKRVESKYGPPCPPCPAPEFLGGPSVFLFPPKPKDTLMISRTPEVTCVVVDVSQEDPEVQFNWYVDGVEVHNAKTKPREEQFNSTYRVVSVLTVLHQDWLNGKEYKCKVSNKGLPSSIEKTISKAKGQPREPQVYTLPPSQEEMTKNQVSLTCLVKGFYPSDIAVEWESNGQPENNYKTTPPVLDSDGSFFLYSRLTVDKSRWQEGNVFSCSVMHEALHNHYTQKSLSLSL
light: DIQMTQSPSSLSASVGDRVTITCRASQDIHKYIAWYQQKPGQAPRLLIQYTSTLQPGVPSRFSGSGSGTDYTFTISSLQPEDIATYYCLQYEQLRTFGGGTKVEIKRTVAAPSVFIFPPSDEQLKSGTASVVCLLNNFYPREAKVQWKVDNALQSGNSQESVTEQDSKDSTYSLSSTLTLSKADYEKHKVYACEVTHQGLSSPVTKSFNRGEC
As for B3, the binding result in assay [30] is reported as “no binding (tested: 30 µg/mL)”.

By Kd is commonly meant the equilibrium constant for the complex coming apart. Usually koff stands for the first-order rate constant of dissociation. As a reminder, the kon is the rate constant with which the complex forms.
